According to article PMC8664124 (Journal of immunology (Baltimore, Md. : 1950), 2021):

Biological target: SARS-CoV-2 Spike (RBD)-Fc (SARS-CoV-2, UniProt P0DTC2)
Assay: ELISA

## EDLFYQ [wild type Spike S1-Interacting Domain of ACE2 Receptor (SPIDAR) peptide]
  binding result: binds
